Laboratory results: patent US20230226096A1 (Orna Therapeutics, Inc., priority 2020, published 2023)

B1: HAV HM175 (nucleic acid)
DNA: CGCCGTTTGCCTAGGCTATAGGCTAAATTTTCCCTTTCCCTTTTCCCTTTCCTATTCCCTTTGTTTTGCTTGTAAATATTGATTTGTAAATATTGATTCCTGCAGGTTCAGGGTTCTTAAATCTGTTTCTCTATAAGAACACTCATTTCACGCTTTCTGTCTTCTTTCTTCCAGGGCTCTCCCCTTGCCCTAGGCTCTGGCCGTTGCGCCCGGCGGGGTCAACTCCATGATTAGCATGGAGCTGTAGGAGTCTAAATTGGGGACACAGATGTTTGGAACGTCACCTTGCAGTGTTAACTTGGCTTTCATGAATCTCTTTGATCTTCCACAAGGGGTAGGCTACGGGTGAAACCTCTTAGGCTAATACTTCTATGAAGAGATGCCTTGGATAGGGTAACAGCGGCGGATATTGGTGAGTTGTTAAGACAAAAACCATTCAACGCCGGAGGACTGACTCTCATCCAGTGGATGCATTGAGTGGATTGACTGTCGGGGCTGTCTTTAGGCTTAATTCCAGACCTCTCTGTGCTTGGGGCAAACATCATTTGGCCTTAAATGGGATTCTGTGAGAGGGGATCCCTCCATTGCCAGCTGGACTGTTCTTTGGGGCCTTATGTGGTGTTTGCCGCTGAGGTACTCAGGGGCATTTAGGTTTTTCCTCATTCTTAAATAATA
modifications: Hepatovirus A
B2: HAV FH1 (nucleic acid)
DNA: CTTGATACCTCACCGCCGTTTGCCTAGGCTATAGGCTAAATTTCCCTTTCCCTGTCCTTTCCCTATTTCCTTTTGTTTTGTTTGTAAATATTAATTCCTGCAGGTTCAGGGTTCTTTAATCTGTTTCTCTATAAGAACACTCAATTTTCACGCTTTCTGTCTCCTTTCTTCCAGGGCTCTCCCCTTGCCCTAGGCTCTGGCCGTTGCGCCCGGCGGGGTCAACTCCATGATTAGCATGGAGCTGTAGGAGTCTAAATTGGGGACGCAGATGTTTGGGACGTCGCCTTGCAGTGTTAACTTGGCTTTCATGAACCTCTTTGATCTTCCACAAGGGGTAGGCTACGGGTGAAACCTCTTAGGCTAATACTTCTATGAAGAGATGCCTTGGATAGGGTAACAGCGGCGGATATTGGTGAGTTGTTAAGACAAAAACCATTCAACGCCGAAGGACTGGCTCTCATCCAGTGGATGCATTGAGGGAATTGATTGTCAGGGCTGTCTCTAGGTTTAATCTCAGACCTCTCTGTGCTTAGGGCAAACACTATTTGGCCTTAAATGGGATCCTGTGAGAGGGGGTCCCTCCATTGACAGCTGGACTGTTCTTTGGGGCCTTATGTGGTGTTTGCCTCTGAGGTACTCAGGGGCATTTAGGTTTTTCCTCATTCTTAAACAATA
modifications: Hepatovirus A
B3: Halastavi arva (1x mut) (nucleic acid)
DNA: CTTGATTCTAACCTTGCCGTATGGTGCCCTAACGGGTTCATTTAATCATGCGATGAGGGTTGCTATACCGCATCCATTCTAAGGCGATTCAATGCTTCATTTAGGAATTTTGTTGACGATTAAAAGGTACCCCCACAAAAACAAAACCAATCTTACTTGATTTTCGTTTTAACTGACCACTGCGATCCCAAATTTTCGCCTTCTTATCAAAGTATGTTGTGTTCTTTGGGTGTACAACCTGAGAACTTGTCTACAACTACATATTACTCGAGGAAGAAATTCGGTTTAAGCCGTGCCTTCTCACGTTTAGTATATCTATCTGGACACACCTTCTTCATCTTCTAATCCCCATCTAGTCTCCTGATCAGAGACGTCGTTATTAACAAATAACCCCCCTTGTTAATAAGAGACAAAGTACAATCAAGCTAAGTTCTCTTGGAGTTCCTGTAGGAACTTAGCCATTGTGATAGAGTCATAAGTCTATGTGCATAGACAGCTCTAGCTCACCATTTCCTTCCCAACCCATCTTTTCATCAGCTTAACTCTATGAATCCGATGCAAAAACCATTCTAACATCTTATGGTGCTTTCCAAGCCAAATGAGAGCTCACTCTTTTGAGCCGCTATTTAATGGACAATAAACGTTTTATAGTGTACATCATATTGTAAAAACAAA
B4: Kunsagivirus B (nucleic acid)
DNA: GATTTTCTGGTTATCCCTTTTGGACTTGGTAGGGGCCCACGTGCCCACCCACCTCTGTGTGTGTTGATTTCTAATCGATGCCTGGCAGTGGCGGCCACCTCTCCTTACTGGTAAACCTCCGGTGAGTGAAGTTGTCAAGCTACAGGTACCGTGCAGGATGAAATGCGCACATGTGAACAAACTAGGAGTCATACACCGGGTCAAACTCTGGAAACGGAGTCCGGGACTCTGACCTTGGTTGGGTGAGCTCGAGGCATCACATTGATGGACGCGATTCGCTATCCTTCCCTAGTAGGACCTTGTGGTGTACCCCTGGTTGGGAATCCAGGGCTGGTCGGGTGCAGGGTGACAGCCTGTTCTCCACCTCAACCATTGTAGGAGAAATCAACCCCT
modifications: Kunsagivirus B
B5: Parechovirus F (nucleic acid)
DNA: GGTCGGGGAGATGTGTTCATGATCGGTTAACACCATCATGGATCATCTCTCCCCGACCTCTTTTTGACCCAGCTATGGGTTAAATAGTACTTTTCTTTTCTCTTTTGCTTTCTTTTGTGTTTTGTTTGTTTTGCAACATATAACAAGCATTTTATCAGTATTAGTGTCTGCAACTGTATAACAAGCAAGGTGGAGCAATCATGCGAGTATATCTCAATTGAATTGTGACACACAAGTGTGCACTATGTGGAATAAATGCCATTTTGGCCAAACCTGGTTAGCCAGACCAGTAGTAGGACAATTTGGCACCCTTAGTGGGCGCGACCTAGATGCTAGGGATGAGCAAACCTATTTCCCCTGAGTACAGGGGCTCTCCTTCACCTCTACATTTTGGACCTCTTTTTGAGTATCCTCGATAGAAGGTGAAGTGACGGTGTACCGGATGGTTAATTGATCTCATTGCTGGGTGACAGCCCGCTAGGACCAGGCAGCATCTTTGTATGGACCTGTACATGTAAC
modifications: Parechovirus F
B6: Orivirus (nucleic acid, listed as Orivirus sp.)
DNA: GGTCCCAGGCCAATATTCTTCGTAAGGCTTGGTTCCAATTTTCCACCACTCGTGTTTGGGTTCTGGCCTATGGTACCCAGAGGGGCGGTTTGGGGGAATTAACTCCCCCTCCCCTGTGGTCCTATACCACCCCACACCTCTGTGGGCTTTCTTTACTATCTTCTTGTTTTCCGACTTTTAAACACTAGGCAGGCGCGCCTAGTCATACACCGCCCGGCTGGTCTTTCCAGCTCTTGTGGGCGGTGCGCGCTGGTCCATCGTGCCCAGCGACATAGCACCTTGTGGACACCTCCGAACGCCCTCCCCTGTATGGGGTGGTGCCCAGGGGTTTCAGTGTGGTGACACACTCCCTGGGGCCCGAAAGGCTAGTGTGCAACAGGTGAGGTACAGCCAGCTGCCCCCGTGGCTGGAGGGACCAAGCTTGTGAAGCACACCTCACCTTCTTGGGGGTGGGCTAGTAAGTGGTGAAAGCATAGTGTCCGTGTCGCTGGCCAACACTTTGGGTCAAGTCCAGCCACTCAGTGAGTAGATGCCCAGGAGGTACCCCTAGTGGATCTGACTTGGGGCCTGTTACTTAATGCAGGTTAAAAACTATGAAAGCTGAGTAGTGTAGCCCGGCTGGTGGCTTCTCTTCCTTATTCATTCTATTTTATGGTGACAAACGCAACTGAAGCC
B7: Limnipivirus A (nucleic acid)
DNA: TTCTTTGGATATCCATTTAACGTGTACCCTATACGATAATTGGGGTGGATTCTGGATGCCTAGTTCCAGTGATTGGTTAAGAACTCGTTTACTACGTATAGTATGATTAGCAAAGTGCTCGATTGATCACGTAATGATCTATGTGGTTAAAAACCCAGTAGTATGGTATATACTCAGTAGTGTACACTGTGAGTACAACTCTTGGCGTAGAGAGAACAATTCACCCGAATCCGTGGCGTATCCATGGAAATAAGTTTACCTAATTGTATGTTACAAGGCATATGAGACATTTATGAGATATGGTTTATTTTGACTAAACGAGTGTAGAGGTGGTGGAGTCTATCCAACTTCAAGCCATGCAATTGTTGTGTTGATTGATATCATTGACCATTTTTGTGGATTGTGTACACATACAATTTGAAAATTAACCCCCTCAAGAATAAGACATGGGACCATTCGTGGTAGATACCGTGCTCGGATGCTTGAGATTAGATGGGTTAGACTAGTTTTGGAATGAGATTGCCGAGAAAGTCCCGCTAGACATGTTTTACAAGTCGTGGTATTCCGCTAGACTTTTTCGCAGACACATGGAAGGGTCCATGTGTTGTGCAATTGCAGGGTGACAGCCCAACTGCAGAGTTTTCCTTACTAGAATAAAAATCTGTTGTCAATTTT
modifications: Limnipivirus A
B8: Limnipivirus C (nucleic acid)
DNA: GTTTCTGAGCACTGGTAAGAGCTTAGACAAACGTTTTTAAAATTTATTTTCTCTGCAACTTTTGTTTGTGTTTATTTTTATTTGTTAATTTTGCGCCTAAGCATTTGTTGCGAAGTATTTGATTCATTAGTAATATTACTTATTGTTTATTTAGATGGTATTCAAAGTGGTGGGAGTATCGAACCCAAGCGTCGTATGCTATCTCCTTGAACAATTTTTAATCATTGCGAAGTGATCATTGAAAAGGATAGGTGTTTAAGAACTCAAAGAGTGTTAATAATGTTGGGTGACAGGTGTCCCCATAGAATTTATTAACATGATTTGGACTGGTTATCTAGTAAGAAGAACCATCGAACGCACGAGCGAGCATTGCTTGCGGGGCAGTTACCCTGCGTCGATGTAAGTGTGTACCGGGGGGTGCACATGTTGATTCTTTATGGCCTGATAGGGTGCGTCATTCGCGCCTAGATAATTAGTATAATGCGAATGGAATAAATTTAC
modifications: Limnipivirus C
B9: Crohivirus A (nucleic acid)
DNA: GTTGAAGTCCATTTCTTGCTTGCCCCCGATGAATCCTGTTAAGGCCTCACGGCCCTAAGGGTGAAACTCGGTTATCCCCTCCTGTACTTCGAGAAGATTAGTACAACACTATGAAATCTACATCTTGTGATCCGGGATAACCCCAATCCCAGAAACCTGTGATGGGCGTCACCACCCCTCTTATGGTAACATAAGGGTGTCGCCGCGTTGGCACAGGACCCTTTGGGCTGGATGTTTTTAGTAATGGTGTCGAAGGTCCTATTGAGCTACAGGAGTTTCCTCCGCCCTGGTGAATGCGGCTAATCTTATCCCTGAGCCTAAGGTTGCGATCCAGCAACTTGATGGTCGTAATGCGTAAGTTGGGGGCGGAACCGACTACTTTCCAGAAGGCGTGTTTCTTTGTTTTGTCTGTTACTATGGTGCATGATATAGATATTGAATATTTGATCTTTTTGAGCTGTTTCTTATCTTATTGCTACATCCTTTCAGGTGTTGGATTTACATTTTGGTTAATAAG
modifications: Crohivirus A
B10: Parechovirus D (nucleic acid)
DNA: ACATGGGGCAGGTGTGCTGTGCCAAGAGCAACACTACGGTGGCCGAGCCGATGGTTCGTCACCACGTAGTAGGACTCCGTAGTGCTTGGTTACGGCGGACGTAAGTCAGTTGAGTGATGTCTAAGTGGCAAACCATGAGTACATGGTAACCTTGTGTGGACTCGCGGGACGGAATTTCCTATCCCATTGACTCCTTGTAGCAAGGTGGGTATACCCAACCACAATGGCAGCACCCTGGGTGGGAACCCAGGGGCCTGGATTAGTATCCAGTCACACAGCCTGATAGGGTGGCGGCTCAGCCACTGACCAGCGTCTCTAAATAATTGTGAGCTGTTCATGCACC
modifications: Parechovirus D

Tested on: HEK293 cells
Assay type: cell-based, human
Conditions: luminescence from secreted Gluc in supernatant 24 hours after transfection of HEK293 cells; circular RNA encoding Gluc with the named IRES (UTR truncated to 675 nt)

Molecule	Expression
B1	4.96E+05
B2	1.24E+05
B3	9.46E+04
B4	8.01E+04
B5	6.56E+05
B6	6.09E+05
B7	8.30E+04
B8	1.35E+05
B9	9.96E+04
B10	3.10E+05
